Results: article PMC2945256

Molecular target: Elongation Factor 1 alpha (EF1α), endogenous in rat liver lysosomes (rat (endogenous in rat liver)) (UniProt P62630)
Assay: co-IP

Sequence of UniProt P62630 (P62630 whole entry): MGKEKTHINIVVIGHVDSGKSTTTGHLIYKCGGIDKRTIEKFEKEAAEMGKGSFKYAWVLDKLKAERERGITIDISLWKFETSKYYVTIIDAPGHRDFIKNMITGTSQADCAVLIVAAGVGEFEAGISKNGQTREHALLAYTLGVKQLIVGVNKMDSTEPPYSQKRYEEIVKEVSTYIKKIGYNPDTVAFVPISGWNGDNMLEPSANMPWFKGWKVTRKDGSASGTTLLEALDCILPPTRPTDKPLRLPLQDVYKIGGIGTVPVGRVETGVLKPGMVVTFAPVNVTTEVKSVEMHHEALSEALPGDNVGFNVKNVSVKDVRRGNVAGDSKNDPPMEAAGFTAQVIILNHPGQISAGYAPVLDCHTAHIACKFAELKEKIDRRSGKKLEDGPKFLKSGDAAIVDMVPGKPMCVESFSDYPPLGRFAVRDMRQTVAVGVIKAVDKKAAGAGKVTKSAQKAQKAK

**Q.** “glial fibrillary acidic protein (GFAP), endogenous in rat liver lysosomes (from UniProt P47819 1-430) (natural protein)” was tested. Which decrease of GFAP co-immunoprecipitated with EF1α upon addition of GTP did it give?
**A.** 47.2%
